B1: B7 antigen (B7-1) stably expressed on CHO cells (ligand, human, UniProt P33681 35-288, looked up)
chain: VIHVTKEVKEVATLSCGHNVSVEELAQTRIYWQKEKKMVLTMMSGDMNIWPEYKNRTIFDITNNLSIVILALRPSDEGTYECVVLKYEKDAFKREHLAEVTLSVKADFPTPSISDFEIPTSNIRRIICSTSGGFPEPHLSWLENGEELNAINTTVSQDPETELYAVSSKLDFNMTTNHSFMCLIKYGHLRVNQTFNWNTTKQEHFPDNLLPSWAITLISVNGIFVICCLTYCFAPRCRERRRNERLRRESVRPV
notes: whole, on cells; also called B7/BB-1; CD80

Key:
[1] = target: B7Ig fusion protein (human) (UniProt P33681); test: solid phase competition for binding of 125I-B7Ig (4 nM) to immobilized CTLA4Ig
[2] = target: B7 antigen on lymphoblastoid cell line (PM LCL) (human) (UniProt P33681); test: cell-based or functional assay
CTLA4Ig fusion protein = target: T1, CTLA4Ig fusion protein (human, UniProt P01857-1 99-330 = IgG part); test: immunoprecipitation from 125I surface-labeled B7+ CHO extract, SDS-PAGE
T1 construct: domain: hinge, CH2 and CH3 regions; also called wild-type CTLA4Ig; human CTLA4Ig

[3] = target: B1; test: indirect cell binding enzyme immunoassay on ethanol-fixed B7-1+ CHO cells

Q: With “murine monoclonal antibody BB-1 (anti-B7 antigen)” as the molecule, how does the IC50 [1] read?
A: 22 nM

Q: What about the inhibition of Th-induced IgM production by allogeneic CD19+ B cells (ELISA) [2] of the same molecule?
A: 65%

Q: Does B1 bind (CTLA4Ig fusion protein)?
A: binds

B2: CTLA4/CD28Ig hybrid fusion protein HS2 (Fc fusion, human)
chain: AMHVAQPAVVLASSRGIASFVCKYSYNLFSREFRASLHKGLDSAVEVCVVYGNYSQQLQVYSKTGFNCDGKLGNESVTFYLQNLYVNQTDIYFCKIELMYPPPYYLGIGNGTQIYVIDPEPCPD
notes: range 23-96; not shown: hinge and constant regions of human IgG1, hinge cysteines mutated; junction printed DQE
Q: Does B2 bind [3]?
A: binds

B3: CTLA4/CD28Ig hybrid fusion protein HS6 (Fc fusion, human)
chain: AMHVAQPAVVLASSRGIASFVCEYSYNLFSREVRVTVLRQADSQVTEVCAATYMMGNELTFLDDSICTGTSSGNQVNLTIQGLRAMDTGLYICKVELMYPPPYYLGIGNGTQIYVIDPEPCPD
notes: range 25-32; not shown: hinge and constant regions of human IgG1, hinge cysteines mutated; junction printed DQE
Q: Does B3 bind [3]?
A: binds

From patent US20050169919A1 (published 2005)
